Measured values reported in publication PMC3436581.

Target: Cu^2+-catalyzed oxidized PrP(23–231) (mild condition) (mouse) (UniProt P04925)
Experiment: SEC

“Cu^2+-catalyzed oxidized PrP(23–231) (mild condition) (from UniProt P04925 23-231) (natural protein)” showed a percent of total protein in the tetramer band of less than 5% and a stoichiometry N of 4.
